Test results taken from patent publication US20040156851A1, “HMGB1 combination therapies” (Critical Therapeutics, Inc., priority 2002, published 2004).

Columns and labels:
RAW 264.7 cells [1] = test: IL-6 release from RAW 264.7 cells (ELISA); assay type: cell-based, murine; settings: B box 0-10 μg/ml, 8 hours (FIG. 2C)
Experimental: (§1) To further examine the effect of HMGB1 B box on cytokine production, varying amounts of HMGB1 B box were evaluated for the effects on TNF, IL-1B, and IL-6 production in murine macrophage-like RAW 264.7 cells. Conditioned media were harvested and measured for TNF, IL-1β and IL-6 levels. TNF levels were measured as described herein, and IL-1β and IL-6 levels were measured using the mouse IL-1β and IL-6 enzyme-linked immunosorbent assay (ELISA) kits (R&D System Inc., Minneapolis, Minn.) and N>5 for all experiments.

RAW 264.7 cells [2] = test: TNF release from RAW 264.7 cells stimulated with HMGB1, mutants or B box peptides (L929 cytotoxicity bioassay); assay type: cell-based, murine
Experimental: Murine macrophage-like RAW 264.7 cells (American Type Culture Collection, Rockville, Md.) were cultured in RPMI 1640 medium (Life Technologies, Grand Island, N.Y.) supplemented with 10% fetal bovine serum (Gemini, Catabasas, Calif.), penicillin and streptomycin (Life Technologies) and were used at 90% confluence in serum-free Opti-MEM I medium (Life Technologies, Grand Island, N.Y.). […] Polymyxin B was not used in experiments of synthetic peptide studies.
TNF release was measured by a standard murine fibroblast L929 (ATCC, American Type Culture Collection, Rockville, Md.) cytotoxicity bioassay (Bianchi et al., Journal of Experimental Medicine 183:927-936, 1996) with the minimum detectable concentration of 30 pg/ml. Recombinant mouse TNF was obtained from R&D system Inc., (Minneapolis, Minn.). Murine fibroblast L929 cells (ATCC) were cultured in DMEM (Life Technologies, Grand Island, N.Y.) supplemented with 10% fetal bovine serum (Gemini, Catabasas, Calif.), penicillin (50 units/ml) and streptomycin (50 μg/ml) (Life Technologies) in a humidified incubator with 5% CO2.
The effect of the mutants on TNF release from Murine macrophage-like RAW 264.7 cells (ATCC) was carried out as follows. RAW 264.7 cells were cultured in RPMI 1640 medium (Life Technologies, Grand Island, N.Y.) supplemented with 10% fetal bovine serum (Gemini, Catabasas, Calif.), penicillin and streptomycin (Life Technologies). Polymyxin (Sigma, St. Louis, Mo.) was added at 100 units/ml to suppress the activity of any contaminating LPS. Cells were incubated with 1 μg/ml of full length (wild-type) HMGB1 and each HMGB1 mutant protein in Opti-MEM I medium for 8 hours. Conditioned supernatants (containing TNF which had been released from the cells) were collected and TNF released from the cells was measured by a standard murine fibroblast L929 (ATCC) cytotoxicity bioassay (Bianchi et al., supra) with the minimum detectable concentration of 30 pg/ml. Recombinant mouse TNF was obtained from R & D Systems Inc., (Minneapolis, Minn.) and used as control in these experiments. Data in FIG. 1 are all presented as mean±SEM unless otherwise indicated. (N=6−10).
as §1
The kinetics of B box-induced TNF release were also examined. TNF release and TNF mRNA expression were measured in RAW 264.7 cells induced by B box polypeptide or GST tag polypeptide only (used as a control (vector)) (10 μg/ml) for 0 to 48 hours. Supernatants were analyzed for TNF protein levels by an L929 cytotoxicity assay (N=3-5) as described herein. For mRNA measurement, cells were plated in 100 mm plates and treated in Opti-MEM I medium containing B box polypeptide or the vector alone for 0, 4, 8, or 24 hours, as indicated in FIG. 2D. The vector only sample was assayed at the 4 hour time point. Cells were scraped off the plate and total RNA was isolated using the RNAzol B method in accordance with the manufacturer's instructions (Tel-Test “B”, Inc., Friendswood, Tex.). TNF (287 bp) was measured by RNase protection assay (Ambion, Austin, Tex.). Equal loading and the integrity of RNA was verified by ethidium bromide staining of the RNA sample on an agarose-formaldehyde gel. […] TNF mRNA expression was maximal at 4 hours and decreased at 8 and 24 hours. […] A similar study was carried out measuring TNF protein released from RAW 264.7 cells 0, 4, 8, 24, 32 or 48 hours after administration of B box or vector only (GST tag), using the L929 cytotoxicity assay described herein. […]

C3H/HeJ mice = test: Lethality and histology in C3H/HeJ mice; assay type: in vivo; settings: 8 hours after administration
RAW 264.7 cells [3] = test: 125I-HMGB1 cell surface binding to RAW 264.7 cells; parameters: species or system murine; settings: 4° C., specific binding (FIG. 5A)
Experimental: Purified HMGB1 protein (10 μg) was radiolabeled with 0.2 mCi of carrier-free ^125I (NEN Life Science Products Inc., Boston, Mass.) using Iodo-beads (Pierce, Rockford, Ill.) according to the manufacturer's instructions. ^125I-HMGB1 protein was separated from un-reacted ^125I by gel chromatography columns (P6 Micro Bio-Spin Chromatography Columns, Bio-Rad Laboratories, Hercules, Calif.) previously equilibrated with 300 mM sodium chloride, 17.5 mM sodium citrate, pH 7.0, and 0.1% bovine serum albumin (BSA). The specific activity of the eluted HMGB1 was about 2.8×10^6 cpm/μg protein. Cell surface binding studies were performed as previously described (Yang et al., Am. J. Physiol. 275:C675-C683, 1998). […] The radioactivity in the lysate was then measured using a gamma counter. Specific binding was determined as total binding minus the radioactivity obtained in the presence of an excess amount of unlabeled HMGB1 or A box proteins.
To determine whether the HMGB1 A box acts as an antagonist by displacing HMGB1 binding, ^125I-labeled —HMGB1 was added to macrophage cultures and binding was measured at 4° C. after 2 hours. Binding assays in RAW 264.7 cells were performed as described herein. ^125I-HMGB1 binding was measured in RAW 264.7 cells plated in 24-well dishes for the times indicated in FIG. 5A. […] The specificity of binding was assessed as described in Example 1. […]

| Molecule | IL-6 release, dose response (RAW 264.7 cells [1]) | TNF protein release over time (RAW 264.7 cells [2]; 10 μg/ml, 0-48 hours, compared to medium only (FIG. 2E)) | TNF release, dose response (RAW 264.7 cells [2]; B box 0-10 μg/ml, 8 hours (FIG. 2A)) | histology of liver (C3H/HeJ mice) | 125I-HMGB1 binding over time (RAW 264.7 cells [3]) |
| --- | --- | --- | --- | --- | --- |
| B box: Human HMGB1 mutant containing only the B box, SEQ ID NO:20 (protein, listed as Homo sapiens) FKDPNAPKRLPSAFFLFCSEYRPKIKGEHPGLSIGDVAKKLGEMWNNTAADDKQPYEKKAAKLKEKYEKDIAAY | IL-6 release from RAW 264.7 cells increased with increased amounts of B box | stimulated TNF protein expression | increased with increased amounts of B box | mild acute inflammatory responses, with some hepatocyte dropout and apoptosis | – |
| HMGB1: Recombinant full length human HMGB1, GST fusion system, SEQ ID NO:18; recombinant rat HMGB1 used in some experiments (protein, listed as Homo sapiens) MGKGDPKKPTGKMSSYAFFVQTCREEHKKKHPDASVNFSEFSKKCSERWKTMSAKEKGKFEDMAKADKARYEREMKTYIPPKGETKKKFKDPNAPKRLPSAFFLFCSEYRPKIKGEHPGLSIGDVAKKLGEMWNNTAADDKQPYEKKAAKLKEKYEKDIAAYRAKGKPDAAKKGVVKAEKSKKKKEEEEDEEDEEDEEEEEDEEDEEDEEEDDDDE | – | – | – | – | saturable first order binding kinetics |
